Data published in PMC4786428, “Recombinational branch migration by the RadA/Sms paralog of RecA in Escherichia coli”.

Target: T1, RadA S372A (Escherichia coli, UniProt P24554 1-460, S372A)
T1 sequence: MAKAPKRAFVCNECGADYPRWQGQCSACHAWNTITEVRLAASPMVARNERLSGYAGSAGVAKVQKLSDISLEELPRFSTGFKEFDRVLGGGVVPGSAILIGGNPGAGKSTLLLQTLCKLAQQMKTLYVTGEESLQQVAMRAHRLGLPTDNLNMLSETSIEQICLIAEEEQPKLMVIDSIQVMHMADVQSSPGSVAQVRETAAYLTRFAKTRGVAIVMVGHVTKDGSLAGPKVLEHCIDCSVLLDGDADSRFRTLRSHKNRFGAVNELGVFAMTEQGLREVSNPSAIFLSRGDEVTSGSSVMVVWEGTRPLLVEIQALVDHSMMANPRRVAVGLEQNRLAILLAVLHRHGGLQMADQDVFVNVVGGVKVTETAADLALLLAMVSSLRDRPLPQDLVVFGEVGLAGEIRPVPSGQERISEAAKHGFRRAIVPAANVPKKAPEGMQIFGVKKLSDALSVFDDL
Assay: EMSA; 1 mM ADP; retains DNA binding; 50 mM Tris-HCl pH 7.5, 10 mM MgCl2, 0.1 mM EDTA, 75 mM NaCl, 5 mM DTT, 100 ug/ml BSA, 1 mM nucleotide, 100 fmol DNA, 37 C for 20-30 min; 6% TBE polyacrylamide gel at room temperature
Conditions: protein: recombinant; tags: eXact tag cleaved; 2 extra N-terminal residues Thr-Ser remain; chain copies: 6

B1: poly(dT)30 (ssDNA)
DNA: TTTTTTTTTTTTTTTTTTTTTTTTTTTTTT
  binding result: binds
